Measured values as given in publication PMC7693302.

Target: S2 domain of SARS-CoV-2 S protein (from S protein with FLAG at both N- and C-termini) (SARS-CoV-2)
Assay: co-sedimentation

S1 domain of S^G614 (from S protein with FLAG at both N- and C-termini) (domain or fragment)
fold S1:S2 ratio against PV^D614: 3.5 fold
